# Assay results: US20260209293A1 (Novo Nordisk, published 2026)
# *1 amine or outer side, *2 acyl side, *3 side chain or, on linkers, in order; H or OH if unused. The star is where a group is joined. C18 diacid = O=C(O)CCCCCCCCCCCCCCCCC(=O)*; γGlu = O=C(O)[C@H](CCC(=O)[*:2])N[*:1]
# T1: human calcitonin receptor (a) (human, UniProt P30988 25-474)
# T1 sequence (looked up): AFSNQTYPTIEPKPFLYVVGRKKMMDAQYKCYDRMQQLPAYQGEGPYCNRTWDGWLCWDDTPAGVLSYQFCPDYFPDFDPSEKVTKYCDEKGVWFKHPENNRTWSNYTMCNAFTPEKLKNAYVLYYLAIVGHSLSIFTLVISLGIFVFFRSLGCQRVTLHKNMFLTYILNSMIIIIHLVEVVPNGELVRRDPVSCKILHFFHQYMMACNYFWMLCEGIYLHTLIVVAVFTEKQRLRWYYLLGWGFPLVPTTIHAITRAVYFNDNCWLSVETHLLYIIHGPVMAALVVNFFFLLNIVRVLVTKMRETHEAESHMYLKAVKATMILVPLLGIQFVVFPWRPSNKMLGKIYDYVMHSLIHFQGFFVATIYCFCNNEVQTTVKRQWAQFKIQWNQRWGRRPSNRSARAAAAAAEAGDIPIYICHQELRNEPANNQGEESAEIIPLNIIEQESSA
# T2: human amylin-3(a) receptor (human, UniProt P30988 25-474; O60896 24-148)
# T2 sequence (looked up) 1: T1 sequence (looked up)
# T2 sequence (looked up) 2: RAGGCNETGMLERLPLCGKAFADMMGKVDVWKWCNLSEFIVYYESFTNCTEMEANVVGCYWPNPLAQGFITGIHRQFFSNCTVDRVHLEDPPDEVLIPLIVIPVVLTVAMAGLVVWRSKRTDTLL
# B1: N^1-[(4S)-4-carboxy-4-(17-carboxyheptadecanoylamino)butanoyl]-[Ala1,Ser2,His3,Leu4,Ser5,Leu7,Gln8,Glu14,His17,Asp21,Pro22,Pro27,Asp31, Pro34,Asp35, … (peptide)
# peptide: {C18 diacid-γGlu}-ASHLSTLQTQRLAEFLHHSSDPFGAIPSSTDVGPDTP-NH2
# SMILES: CC[C@H](C)[C@H](NC(=O)[C@H](C)NC(=O)CNC(=O)[C@H](Cc1ccccc1)NC(=O)[C@@H]1CCCN1C(=O)[C@H](CC(=O)O)NC(=O)[C@H](CO)NC(=O)[C@H](CO)NC(=O)[C@H](Cc1c[nH]cn1)NC(=O)[C@H](Cc1c[nH]cn1)NC(=O)[C@H](CC(C)C)NC(=O)[C@H](Cc1ccccc1)NC(=O)[C@H](CCC(=O)O)NC(=O)[C@H](C)NC(=O)[C@H](CC(C)C)NC(=O)[C@H](CCCNC(=N)N)NC(=O)[C@H](CCC(N)=O)NC(=O)[C@@H](NC(=O)[C@H](CCC(N)=O)NC(=O)[C@H](CC(C)C)NC(=O)[C@@H](NC(=O)[C@H](CO)NC(=O)[C@H](CC(C)C)NC(=O)[C@H](Cc1c[nH]cn1)NC(=O)[C@H](CO)NC(=O)[C@H](C)NC(=O)CC[C@H](NC(=O)CCCCCCCCCCCCCCCCC(=O)O)C(=O)O)[C@@H](C)O)[C@@H](C)O)C(=O)N1CCC[C@H]1C(=O)N[C@@H](CO)C(=O)N[C@@H](CO)C(=O)N[C@H](C(=O)N[C@@H](CC(=O)O)C(=O)N[C@H](C(=O)NCC(=O)N1CCC[C@H]1C(=O)N[C@@H](CC(=O)O)C(=O)N[C@H](C(=O)N1CCC[C@H]1C(N)=O)[C@@H](C)O)C(C)C)[C@@H](C)O
# B2: N^1-[(4S)-4-carboxy-4-[[(4S)-4-carboxy-4-(17-carboxyheptadecanoylamino)butanoyl]amino]butanoyl]-[Ala1,Ser2, His3, Leu4,Ser5,Ala7,Gln8,Glu14, His17, Pro25, … (peptide)
# peptide: {C18 diacid-γGlu-γGlu}-ASHLSTAQTQRLAEFLHHFGPILPPTDVGSETY-NH2
# SMILES: CC[C@H](C)[C@H](NC(=O)[C@@H]1CCCN1C(=O)CNC(=O)[C@H](Cc1ccccc1)NC(=O)[C@H](Cc1c[nH]cn1)NC(=O)[C@H](Cc1c[nH]cn1)NC(=O)[C@H](CC(C)C)NC(=O)[C@H](Cc1ccccc1)NC(=O)[C@H](CCC(=O)O)NC(=O)[C@H](C)NC(=O)[C@H](CC(C)C)NC(=O)[C@H](CCCNC(=N)N)NC(=O)[C@H](CCC(N)=O)NC(=O)[C@@H](NC(=O)[C@H](CCC(N)=O)NC(=O)[C@H](C)NC(=O)[C@@H](NC(=O)[C@H](CO)NC(=O)[C@H](CC(C)C)NC(=O)[C@H](Cc1c[nH]cn1)NC(=O)[C@H](CO)NC(=O)[C@H](C)NC(=O)CC[C@H](NC(=O)CC[C@H](NC(=O)CCCCCCCCCCCCCCCCC(=O)O)C(=O)O)C(=O)O)[C@@H](C)O)[C@@H](C)O)C(=O)N[C@@H](CC(C)C)C(=O)N1CCC[C@H]1C(=O)N1CCC[C@H]1C(=O)N[C@H](C(=O)N[C@@H](CC(=O)O)C(=O)N[C@H](C(=O)NCC(=O)N[C@@H](CO)C(=O)N[C@@H](CCC(=O)O)C(=O)N[C@H](C(=O)N[C@@H](Cc1ccc(O)cc1)C(N)=O)[C@@H](C)O)C(C)C)[C@@H](C)O
# B3: N^1-[(4S)-4-carboxy-4-(17-carboxyheptadecanoylamino)butanoyl]-[Ala1,Ser2,His3,Leu4,Ser5,Ala7,Gln8,Glu14,His17,Asp21,Pro22,Pro27,Asp31,Pro34,Asp35]-human amylin (peptide)
# peptide: {C18 diacid-γGlu}-ASHLSTAQTQRLAEFLHHSSDPFGAIPSSTDVGPDTY-NH2
# SMILES: CC[C@H](C)[C@H](NC(=O)[C@H](C)NC(=O)CNC(=O)[C@H](Cc1ccccc1)NC(=O)[C@@H]1CCCN1C(=O)[C@H](CC(=O)O)NC(=O)[C@H](CO)NC(=O)[C@H](CO)NC(=O)[C@H](Cc1c[nH]cn1)NC(=O)[C@H](Cc1c[nH]cn1)NC(=O)[C@H](CC(C)C)NC(=O)[C@H](Cc1ccccc1)NC(=O)[C@H](CCC(=O)O)NC(=O)[C@H](C)NC(=O)[C@H](CC(C)C)NC(=O)[C@H](CCCNC(=N)N)NC(=O)[C@H](CCC(N)=O)NC(=O)[C@@H](NC(=O)[C@H](CCC(N)=O)NC(=O)[C@H](C)NC(=O)[C@@H](NC(=O)[C@H](CO)NC(=O)[C@H](CC(C)C)NC(=O)[C@H](Cc1c[nH]cn1)NC(=O)[C@H](CO)NC(=O)[C@H](C)NC(=O)CC[C@H](NC(=O)CCCCCCCCCCCCCCCCC(=O)O)C(=O)O)[C@@H](C)O)[C@@H](C)O)C(=O)N1CCC[C@H]1C(=O)N[C@@H](CO)C(=O)N[C@@H](CO)C(=O)N[C@H](C(=O)N[C@@H](CC(=O)O)C(=O)N[C@H](C(=O)NCC(=O)N1CCC[C@H]1C(=O)N[C@@H](CC(=O)O)C(=O)N[C@H](C(=O)N[C@@H](Cc1ccc(O)cc1)C(N)=O)[C@@H](C)O)C(C)C)[C@@H](C)O
# B4: N^1-[(4S)-4-carboxy-4-(17-carboxyheptadecanoylamino)butanoyl]-[Ala1,Ser2,His3,Leu4, Ser5, Leu7,Gln8,Glu14,His17,Pro25, Pro28,Pro29,Asp31,Glu35,Pro37], … (peptide)
# peptide: {C18 diacid-γGlu}-ASHLSTLQTQRLAEFLHHFGPILPPTDVGSETP-NH2
# SMILES: CC[C@H](C)[C@H](NC(=O)[C@@H]1CCCN1C(=O)CNC(=O)[C@H](Cc1ccccc1)NC(=O)[C@H](Cc1c[nH]cn1)NC(=O)[C@H](Cc1c[nH]cn1)NC(=O)[C@H](CC(C)C)NC(=O)[C@H](Cc1ccccc1)NC(=O)[C@H](CCC(=O)O)NC(=O)[C@H](C)NC(=O)[C@H](CC(C)C)NC(=O)[C@H](CCCNC(=N)N)NC(=O)[C@H](CCC(N)=O)NC(=O)[C@@H](NC(=O)[C@H](CCC(N)=O)NC(=O)[C@H](CC(C)C)NC(=O)[C@@H](NC(=O)[C@H](CO)NC(=O)[C@H](CC(C)C)NC(=O)[C@H](Cc1c[nH]cn1)NC(=O)[C@H](CO)NC(=O)[C@H](C)NC(=O)CC[C@H](NC(=O)CCCCCCCCCCCCCCCCC(=O)O)C(=O)O)[C@@H](C)O)[C@@H](C)O)C(=O)N[C@@H](CC(C)C)C(=O)N1CCC[C@H]1C(=O)N1CCC[C@H]1C(=O)N[C@H](C(=O)N[C@@H](CC(=O)O)C(=O)N[C@H](C(=O)NCC(=O)N[C@@H](CO)C(=O)N[C@@H](CCC(=O)O)C(=O)N[C@H](C(=O)N1CCC[C@H]1C(N)=O)[C@@H](C)O)C(C)C)[C@@H](C)O
# B5: N^1-[(4S)-4-carboxy-4-(17-carboxyheptadecanoylamino)butanoyl]-[Ala1,Ser2,His3,Leu4,Ser5,Leu7,Gln8,Glu14,His17,Asp21,Pro25,Pro28,Pro29,Asp31, Pro37]-human amylin (peptide)
# peptide: {C18 diacid-γGlu}-ASHLSTLQTQRLAEFLHHSSDNFGPILPPTDVGSNTP-NH2
# SMILES: CC[C@H](C)[C@H](NC(=O)[C@@H]1CCCN1C(=O)CNC(=O)[C@H](Cc1ccccc1)NC(=O)[C@H](CC(N)=O)NC(=O)[C@H](CC(=O)O)NC(=O)[C@H](CO)NC(=O)[C@H](CO)NC(=O)[C@H](Cc1c[nH]cn1)NC(=O)[C@H](Cc1c[nH]cn1)NC(=O)[C@H](CC(C)C)NC(=O)[C@H](Cc1ccccc1)NC(=O)[C@H](CCC(=O)O)NC(=O)[C@H](C)NC(=O)[C@H](CC(C)C)NC(=O)[C@H](CCCNC(=N)N)NC(=O)[C@H](CCC(N)=O)NC(=O)[C@@H](NC(=O)[C@H](CCC(N)=O)NC(=O)[C@H](CC(C)C)NC(=O)[C@@H](NC(=O)[C@H](CO)NC(=O)[C@H](CC(C)C)NC(=O)[C@H](Cc1c[nH]cn1)NC(=O)[C@H](CO)NC(=O)[C@H](C)NC(=O)CC[C@H](NC(=O)CCCCCCCCCCCCCCCCC(=O)O)C(=O)O)[C@@H](C)O)[C@@H](C)O)C(=O)N[C@@H](CC(C)C)C(=O)N1CCC[C@H]1C(=O)N1CCC[C@H]1C(=O)N[C@H](C(=O)N[C@@H](CC(=O)O)C(=O)N[C@H](C(=O)NCC(=O)N[C@@H](CO)C(=O)N[C@@H](CC(N)=O)C(=O)N[C@H](C(=O)N1CCC[C@H]1C(N)=O)[C@@H](C)O)C(C)C)[C@@H](C)O
# B6: N^1-[(4S)-4-carboxy-4-[[(4S)-4-carboxy-4-(17-carboxyheptadecanoylamino)butanoyl]amino]butanoyl]-[Ala1,Ser2,His3,Leu4,Ser5,Ala7,Gln8,Glu14,His17,Pro25,Pro28,Pro2 … (peptide)
# peptide: {C18 diacid-γGlu-γGlu}-ASHLSTAQTQRLAEFLHHFGPILPPTDVGSETP-NH2
# SMILES: CC[C@H](C)[C@H](NC(=O)[C@@H]1CCCN1C(=O)CNC(=O)[C@H](Cc1ccccc1)NC(=O)[C@H](Cc1c[nH]cn1)NC(=O)[C@H](Cc1c[nH]cn1)NC(=O)[C@H](CC(C)C)NC(=O)[C@H](Cc1ccccc1)NC(=O)[C@H](CCC(=O)O)NC(=O)[C@H](C)NC(=O)[C@H](CC(C)C)NC(=O)[C@H](CCCNC(=N)N)NC(=O)[C@H](CCC(N)=O)NC(=O)[C@@H](NC(=O)[C@H](CCC(N)=O)NC(=O)[C@H](C)NC(=O)[C@@H](NC(=O)[C@H](CO)NC(=O)[C@H](CC(C)C)NC(=O)[C@H](Cc1c[nH]cn1)NC(=O)[C@H](CO)NC(=O)[C@H](C)NC(=O)CC[C@H](NC(=O)CC[C@H](NC(=O)CCCCCCCCCCCCCCCCC(=O)O)C(=O)O)C(=O)O)[C@@H](C)O)[C@@H](C)O)C(=O)N[C@@H](CC(C)C)C(=O)N1CCC[C@H]1C(=O)N1CCC[C@H]1C(=O)N[C@H](C(=O)N[C@@H](CC(=O)O)C(=O)N[C@H](C(=O)NCC(=O)N[C@@H](CO)C(=O)N[C@@H](CCC(=O)O)C(=O)N[C@H](C(=O)N1CCC[C@H]1C(N)=O)[C@@H](C)O)C(C)C)[C@@H](C)O
# Target: T1, human calcitonin receptor (a)
# Assay: cell-based or functional assay
row,"hCalcR potency, EC50 (pM); CRE-luciferase reporter in BHK cells [pM]",Binder
1,1.74,B1
2,15.7,B2
3,3.22,B3
4,2.26,B4
5,2.06,B5
6,2.13,B6

# Target: T2, human amylin-3(a) receptor
# Assay: cell-based or functional assay
row,"hAmyR3 potency, EC50 (pM); CRE-luciferase reporter in BHK cells [pM]",Binder
1,1.69,B1
2,5.71,B2
3,2.96,B3
4,1.6,B4
5,1.91,B5
6,2.03,B6
